Data on two molecules can be found in patent US20240165208A1, “Mutant KRAS-Targeting Peptide and Use Thereof” (GJMEDI INC., priority 2020, published 2024).

The test system of data set [1] is AsPC-1 cells. The class given is cell-based. To be noted: 48 h. Here is the method: Through 3-(4,5-dimethylthiazol-2-yl)-2,5-diphenyltetrazolium bromide (MTT) analysis, an effect of the anticancer peptide GJ101 on the cell viability of cancer cells was examined. For the cell viability analysis, AsPC-1 cells as a pancreatic cancer cell line were used. The pancreatic cancer cell line was prepared by dispensing the pancreatic cancer cell line at 1×10^3 cells/well (100 μL) and adhering thereto. To treat the anticancer peptide GJ101, the medium of the cells was replaced with a new medium (RPMI-1640). The pancreatic cancer cell lines with different adhering times were treated with the anticancer peptide GJ101 while increasing a concentration gradient, respectively. The pancreatic cancer cells treated with the anticancer peptide GJ101 were incubated for 24 or 48 hours, respectively. Each incubated pancreatic cancer cell was added with an MTT solution (5 mg/mL) and incubated for 90 minutes. After the end of the incubation, an optical density (OD) of pancreatic cancer cells was measured at 540 nm using a microplate reader (Molecular Devices, USA), and a maximum concentration (GI50) at which the growth of pancreatic cancer cells was reduced by half was confirmed. The result of examining the effect of the anticancer peptide GJ101 on the cell viability of tumor cells was illustrated in FIG. 5.

Data set [2] can be described thus: body weight and general condition in cancer animal model. To be noted: GJ101 25 mg/kg or 50 mg/kg. Type of data set: in vivo. Here is the method:
To prepare a cancer animal model, AsPC-1 cells as a pancreatic cancer cell line were prepared by dissociation in a Hanks' balanced salt solution (HBSS) and a materigel. The prepared AsPC-1 cells were transplanted into the right flank of a nude mouse at an amount of 2×10^6 cells/10 μL/animal to prepare a cancer animal model.
For an experiments to be described later, the anticancer peptide GJ101 was administered at a concentration of 25 mg/kg or 50 mg/kg from day 16 after the preparation of the cancer animal model. In addition, a control group (Vehicle) was treated with 10% DMSO, 40% PEG400, and 50% DW.
A drug was administered to a cancer animal model, and then the body weight of the individual was measured once a day, and the result were illustrated in FIG. 6.

In data set [3] the target is T1, KRAS G12V protein (UniProt P01116-2 1-188, limits assumed).
T1 construct: also called mutant KRAS G12V; mutant Kirsten-RAS
Description: ITC, GJ101 (1.0 mM) injected into KRAS G12V (0.1 mM), 25 °C. Here is the method: (§1) In order to examine the affinity of the anticancer peptide GJ101 to the KRAS G12V protein, isothermal titration heat was measured using isothermal titration calorimetry (ITC). Specifically, the KRAS G12V protein was prepared by dialysis with a buffer [20 mM Tris-HCl (pH 7.4), 100 mM NaCl, and 2 mM MgCl₂] so that the final concentration of the KRAS G12V protein was 0.1 mM. Next, the anticancer peptide GJ101 was prepared by diluting the anticancer peptide GJ101 to a concentration of 1.0 mM using the same buffer as described above. Isothermal titration heat measurement was performed by injecting the prepared KRAS G12V protein and anticancer peptide GJ101 into isothermal titration calorimetry. In the isothermal titration heat measurement, the anticancer peptide GJ101 was injected 20 times at 25° C. while stirring at a rate of 1,000 rpm. ΔS was calculated from a standard thermodynamic equation using the calculated K and ΔH values. The results of isothermal titration calorimetry were illustrated in FIG. 3.
(Isothermal titration calorimetry measures the heat released or taken up as one component is titrated into another.)

The target in data set [4] is T1, KRAS G12V protein. The data set can be described thus: ITC, calculated from K and ΔH. Here is the method: as §1

No end group written: not given here.

In turn, LYDVA [GJ101] displayed a GI50 in data set [1] of 16 µM. Also, the “moribund state or behavioral abnormalities” value in data set [2] was “not observed”.

B1: anticancer peptide GJ101 (peptide)
peptide: LYDVA
notes: Synthesised by solid phase peptide synthesis and purified by RP-HPLC to 95% or more; said to consist of 5 amino acids and to be derived from H-REV107; also called mutant KRAS-targeting anticancer peptide
B1: in data set [3], the Ka is 86500 M⁻¹; the affinity, expressed as Kd, was 12 µM; the ΔH is -0.994 kcal/mol. Also, in data set [4], the ΔS is 19.3 cal/mol/deg.

Broadly, the GI50 is the concentration that inhibits growth by half. A low value points to more potent growth inhibition. By Kd is commonly meant the constant that tells how readily two partners part at equilibrium.
